{"source": "patent US6844171", "about": "(Harvard, dated 2005)", "molecules": {"B1": {"name": "recombinant small delta antigen (r-HDAg-S), full length, expressed in E. coli from plasmid pR5δV5 (other)", "chain": "SRSERRKDRGGREDILEQWVSGRKKLEELERDLRKLKKKIKKLEEDNPWLGNIKGIIGKKDKDGEGAPPAKKLRMDQMEIDAGPRKRPLRGGFTDKERQDHRRRKALENKRKQLSSGGKSLSREEEEELKRLTEEDEKRERRIAGPSVGGVNPLEGGSRGAPGGGFVPSMQGVPESPFARTGEGLDIRGSQGFP", "notes": "also called r-δAg-S; rδAg-S"}}, "key": {"[1]": {"target": "δ25-60(Y) peptide (regions B+C of the HDAg multimer-forming domain, with C-terminal tyrosine) (hepatitis delta virus (American strain))", "assay": "CD spectroscopy in PBS at 37° C."}, "[2]": {"target": "δ12-49 peptide (regions A+B of the HDAg multimer-forming domain) (hepatitis delta virus (American strain))", "assay": "CD spectroscopy in PBS at 37° C."}, "[3]": {"target": "the molecule itself", "assay": "glutaraldehyde cross-linking, MALDI-TOF mass spectrometry"}}}
{"molecule": "δ25-60(Y) peptide (regions B+C of the HDAg multimer-forming domain, with C-terminal tyrosine)", "values": [{"measurement": "[θ222]/[θ208] ratio (indicator of coiled-coil formation)", "setting": "[1]", "result": 0.76}]}
{"molecule": "GREDILEQWVSGRKKLEELERDLRKLKKKIKKLEEDNP", "note": "[δ12-49 peptide (regions A+B of the HDAg multimer-forming domain)]", "values": [{"measurement": "[θ222]/[θ208] ratio (indicator of coiled-coil formation)", "setting": "[2]", "result": 0.79}]}
{"molecule": "B1", "values": [{"measurement": "ratio of the masses of the cross-linked species to the monomer", "setting": "[3]", "result": 8.1}]}
